B1: EPB41L3 (parent)
chain: FRFAPNHTKELEDKVIELHKSHRG
B2: KRT13 (parent)
chain: YGGGLGGGFGGGFAGGFVDFGACD

Variants of: B1
Assay: protein stability index of a GFP-peptide fusion (GPS, HEK-293T) (PSI 1-6); higher = more stable
Conditions: c terminus: a fixed tail appended
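Note: lentivirally expressed fusions sorted by FACS into six bins by GFP to DsRed ratio, PSI derived from sequencing read proportions per bin multiplied by bin number.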

Protein stability index, by site and new letter:
F1: K 4.35; E 4.2; C 2.93; H 4.62; I 2.69; Y 3.73; S 4.58; L 3.78; G 3.6; N 3.62; R 4.41; M 3.68; V 3.08; D 4.4; P 3.99; A 4.17; W 2.26; Q 3.89; T 4.12
R2: F 2.81; N 3.96; D 3.5; H 2.01; M 2.89; P 3.82; L 2.78; E 4.02; C 3.36; K 3.81; A 3.49; G 3.94; I 2.03

Variants of: B2
Assay: as above
Conditions: c terminus: a fixed tail appended

Protein stability index of substitutions, site by site:
G16: C 3.82; E 1.69; Y 2.16; I 2.53; R 1.8; M 2.76
G4: S 2.42; M 1.21; H 1.6; P 2.03; K 2.84; F 1.7; I 1.93
G3: D 1.5; P 2.03; F 1.88; V 2.48
V18: M 1.65; A 2.34; L 1.38; K 2.09
G15: D 2.03; H 1.65; S 1.77; P 2.71; R 2.42; K 1.18; V 3.52
L5: F 1.38; V 2.73; N 1.84; P 1.95
G6: H 1.79; D 1.89; V 2.12; Y 1; T 2.19; E 2.26; N 1.65; I 3.11; P 3.58; W 3.1
D19: T 1.95; K 2; A 3.27; W 3.27
F9: V 1.94; C 1.79; A 1.68; D 2.46; P 1.75; L 1.76; K 1.64; Q 2.1
G11: S 1.92; E 2.12; C 1.56; V 2.4; Y 4.04; F 2.07; D 2.38
G10: C 4; W 3.23; K 1.53; T 1.26; Y 3.74
F13: P 2.09; E 2.32; G 2.08
Y1: F 1.16; Q 3.12; W 2.08; P 2.75; I 2.54; T 2.73; G 3.48; N 3.65; S 3.23; R 2.76
A22: T 1.9; K 1.98; P 2.27; M 2.09
G8: V 2.48; W 3.32
G12: W 1.34; E 1.84; Y 3.95; H 1.4; T 2.68; N 1.04; I 2.4; Q 1.39
A14: P 2.02; Y 2.65; R 2.03; T 1.84
G21: R 2.37; T 2.69; H 1.93; F 2.87
F20: I 1.27; H 2.69; R 1.78; W 2.62; S 1.82
G7: L 1.81; M 2.46; F 3.32; R 1.74; Q 1.23; T 1.49
G2: N 2.23; R 2.33; D 2.67; E 2.66; I 3.26
C23: P 1.8; N 1.76; F 1.41; Q 1.31; W 1.84; R 2.79
F17: A 2.07; E 2.44; P 1.81; V 2.37; G 1.68; S 1.89; H 2.06; D 2.43; I 1.23
D24: Q 1.91; F 2.17; V 2.45

From the supplement of paper PMC10567573
